Results on seven sequences are retold here after the supplement of paper PMC11246515.

± gives the standard deviation of the averaged measurements. A value given as a limit tells only on which side of the number the result lay.

This data set can be described thus: total protein half-life in vivo (active degradation + dilution); higher = more stable protein.
The mark [1] stands for this setting: E. coli NCM3722 delta-clpP delta-lon delta-hslV, growth: N-lim chemostat, doubling time 6 h.
The mark [2] stands for this setting: E. coli NCM3722 delta-clpP, growth: N-lim chemostat, doubling time 6 h.
Setting [3] is: E. coli NCM3722 delta-hslV, growth: N-lim chemostat, doubling time 6 h.
The mark [4] stands for this setting: E. coli NCM3722 delta-lon, growth: N-lim chemostat, doubling time 6 h.
Where [5] appears, read: E. coli NCM3722 delta-smpB, growth: N-lim chemostat, doubling time 6 h.
Where [6] appears, read: wild type E. coli NCM3722, growth: C-lim chemostat, doubling time 3 h.
[7] abbreviates: wild type E. coli NCM3722, growth: C-lim chemostat, doubling time 6 h.
Where [8] appears, read: wild type E. coli NCM3722, growth: C-lim chemostat, doubling time 12 h.
The mark [9] stands for this setting: wild type E. coli NCM3722, growth: N-lim chemostat, doubling time 6 h.
The mark [10] stands for this setting: wild type E. coli NCM3722, growth: N-lim chemostat, doubling time 12 h.
Setting [11] is: wild type E. coli NCM3722, growth: P-lim chemostat, doubling time 6 h.
Where [12] appears, read: wild type E. coli NCM3722, growth: P-lim chemostat, doubling time 12 h.

For the sequence “MQYNPLGKTDLRVSRLCLGCMTFGEPDRGNHAWTLPEESSRPIIKRALEGGINFFDTANSYSDGSSEEIVGRALRDFARREDVVVATKVFHRVGDLPEGLSRAQILRSIDDSLRRLGMDYVDILQIHRWDYNTPIEETLEALNDVVKAGKARYIGASSMHASQFAQALELQKQHGWAQFVSMQDHYNLIYREEEREMLPLCYQEGVAVIPWSPLARGRLTRPWGETTARLVSDEVGKNLYKESDENDAQIAERLTGVSEELGATRAQVALAWLLSKPGIAAPIIGTSREEQLDELLNAVDITLKPEQIAELETPYKPHPVVGFK”, the “total protein half-life in vivo” value runs as follows: under setting [1], 4.533 ± 0.045 h; under setting [2], 4.47 ± 0.65 h; under setting [3], 4.55 ± 0.91 h; under setting [4], 5 ± 0.2 h; under setting [5], 3.79 ± 0.081 h; under setting [6], 2.81 ± 0.13 h. For the same sequence, the “total protein half-life in vivo” value worked out at 5.04 ± 0.076 h under setting [7]; 9.04 ± 0.38 h under setting [8]; 4.21 ± 0.2 h under setting [9]; 6.51 ± 0.4 h under setting [10]; 4.28 ± 0.23 h under setting [11]; 8.83 ± 0.12 h under setting [12].
As to “MKGRWVKYLLMGTVVAMLAACSSKPTDRGQQYKDGKFTQPFSLVNQPDAVGAPINAGDFAEQINHIRNSSPRLYGNQSNVYNAVQEWLRAGGDTRNMRQFGIDAWQMEGADNYGNVQFTGYYTPVIQARHTRQGEFQYPIYRMPPKRGRLPSRAEIYAGALSDKYILAYSNSLMDNFIMDVQGSGYIDFGDGSPLNFFSYAGKNGHAYRSIGKVLIDRGEVKKEDMSMQAIRHWGETHSEAEVRELLEQNPSFVFFKPQSFAPVKGASAVPLVGRASVASDRSIIPPGTTLLAEVPLLDNNGKFNGQYELRLMVALDVGGAIKGQHFDIYQGIGPEAGHRAGWYNHYGRVWVLKTAPGAGNVFSG [P0A935]”, the “total protein half-life in vivo” value by setting is: under setting [1], 5.19 ± 1.9 h; under setting [2], 4.22 ± 0.17 h; under setting [3], 3.87 ± 0.69 h; under setting [4], 4.05 ± 0.22 h; under setting [5], 3 ± 0.41 h; under setting [6], 1.877 ± 0.013 h. Further, the “total protein half-life in vivo” value is, setting by setting: under setting [7], 2.8 ± 0.13 h; under setting [8], 4.23 ± 0.38 h; under setting [9], 2.99 ± 0.4 h; under setting [10], 3.79 ± 0.35 h; under setting [11], 3.7 ± 0.37 h; under setting [12], 6.57 ± 0.27 h.
On to “MKKLFIQFYLLLFVCFLVMSLLVGLVYKFTAERAGKQSLDDLMNSSLYLMRSELREIPPHDWGKTLKEMDLNLSFDLRVEPLSKYHLDDISMHRLRGGEIVALDDQYTFLQRIPRSHYVLAVGPVPYLYYLHQMRLLDIALIAFIAISLAFPVFIWMRPHWQDMLKLEAAAQRFGDGHLNERIHFDEGSSFERLGVAFNQMADNINALIASKKQLIDGIAHELRTPLVRLRYRLEMSDNLSAAESQALNRDISQLEALIEELLTYARLDRPQNELHLSEPDLPLWLSTHLADIQAVTPDKTVRIKTLVQGHYAALDMRLMERVLDNLLNNALRYCHSTVETSLLLSGNRATLIVEDDGPGIAPENREHIFEPFVRLDPSRDRSTGGCGLGLAIVHSIALAMGGTVNCDTSELGGARFSFSWPLWHNIPQFTSA”, for which the “total protein half-life in vivo” value amounted to 6.14 ± 0.51 h under setting [3]; 6.03 ± 0.18 h under setting [5]; 2.755 ± 0.017 h under setting [6]; 6.26 h under setting [7]; 12.5 ± 4.9 h under setting [8]; 6.3 h under setting [9]. In addition, the “total protein half-life in vivo” value under setting [10] was 10.1 ± 2.2 h, the “total protein half-life in vivo” value under setting [11] was 5.97 ± 0.2 h and the “total protein half-life in vivo” value under setting [12] came to 11.4 ± 0.61 h.
As to “MERFDAIIIGAGAAGMFCSALAGQAGRRVLLIDNGKKPGRKILMSGGGRCNFTNLYVEPGAYLSQNPHFCKSALARFTQWDFIDLVNKHGIAWHEKTLGQLFCDDSAQQIVDMLVDECEKGNVTFRLRSEVLSVAKDETGFTLDLNGMTVGCEKLVIATGGLSMPGLGASPFGYKIAEQFGLNVLPTRAGLVPFTLHKPLLEELQVLAGVAVPSVITAENGTVFRENLLFTHRGLSGPAVLQISSYWQPGEFVSINLLPDVDLETFLNEQRNAHPNQSLKNTLAVHLPKRLVERLQQLGQIPDVSLKQLNVRDQQALISTLTDWRVQPNGTEGYRTAEVTLGGVDTNELSSRTMEARKVPGLYFIGEVMDVTGWLGGYNFQWAWSSAWACAQDLIAAKSS”, the “total protein half-life in vivo” value under setting [1] stood at 5.02 ± 0.28 h; the “total protein half-life in vivo” value under setting [2] was 5.67 ± 1.1 h; the “total protein half-life in vivo” value under setting [4] was 5.81 ± 0.69 h; the “total protein half-life in vivo” value under setting [5] came out at 4.72 ± 0.1 h; the “total protein half-life in vivo” value under setting [6] came out at 3.282 ± 0.019 h; the “total protein half-life in vivo” value under setting [7] worked out at 6.42 ± 0.6 h. Further, the “total protein half-life in vivo” value turned out to be 12.3 ± 1.9 h under setting [8]; 5.15 ± 0.21 h under setting [9]; 9.59 ± 0.85 h under setting [10]; 5.88 ± 0.17 h under setting [11]; 10.8 ± 1.7 h under setting [12].
For the sequence “MRWLPFIAIFLYVYIEISIFIQVAHVLGVLLTLVLVIFTSVIGMSLVRNQGFKNFVLMQQKMAAGENPAAEMIKSVSLIIAGLLLLLPGFFTDFLGLLLLLPPVQKHLTVKLMPHLRFSRMPGGGFSAGTGGGNTFDGEYQRKDDERDRLDHKDDRQD”, the “total protein half-life in vivo” value by setting is: under setting [1], 5.99 ± 0.11 h; under setting [2], 6.83 ± 1.1 h; under setting [3], 6.44 ± 0.84 h; under setting [4], 6.06 ± 0.49 h; under setting [5], 5.53 ± 0.073 h; under setting [6], 2.47 ± 0.28 h. Besides, the “total protein half-life in vivo” value worked out at 7.17 ± 0.34 h under setting [7]; 11.7 ± 1.8 h under setting [8]; 6.12 ± 1.3 h under setting [9]; 14.2 h under setting [10]; 5.89 ± 0.25 h under setting [11]; 12.4 ± 0.96 h under setting [12].
Turning to “MIGRISRFMTRFVSRWLPDPLIFAMLLTLLTFVIALWLTPQTPISMVKMWGDGFWNLLAFGMQMALIIVTGHALASSAPVKSLLRTAASAAKTPVQGVMLVTFFGSVACVINWGFGLVVGAMFAREVARRVPGSDYPLLIACAYIGFLTWGGGFSGSMPLLAATPGNPVEHIAGLIPVGDTLFSGFNIFITVALIVVMPFITRMMMPKPSDVVSIDPKLLMEEADFQKQLPKDAPPSERLEESRILTLIIGALGIAYLAMYFSEHGFNITINTVNLMFMIAGLLLHKTPMAYMRAISAAARSTAGILVQFPFYAGIQLMMEHSGLGGLITEFFINVANKDTFPVMTFFSSALINFAVPSGGGHWVIQGPFVIPAAQALGADLGKSVMAIAYGEQWMNMAQPFWALPALAIAGLGVRDIMGYCITALLFSGVIFVIGLTLF”, the “total protein half-life in vivo” value runs as follows: under setting [2], 5.89 h; under setting [4], 5.21 h; under setting [5], 5.88 h; under setting [9], 5.5 h; under setting [10], 15.3 h.
“MNLKLQLKILSFLQFCLWGSWLTTLGSYMFVTLKFDGASIGAVYSSLGIAAVFMPALLGIVADKWLSAKWVYAICHTIGAITLFMAAQVTTPEAMFLVILINSFAYMPTLGLINTISYYRLQNAGMDIVTDFPPIRIWGTIGFIMAMWVVSLSGFELSHMQLYIGAALSAILVLFTLTLPHIPVAKQQANQSWTTLLGLDAFALFKNKRMAIFFIFSMLLGAELQITNMFGNTFLHSFDKDPMFASSFIVQHASIIMSISQISETLFILTIPFFLSRYGIKNVMMISIVAWILRFALFAYGDPTPFGTVLLVLSMIVYGCAFDFFNISGSVFVEKEVSPAIRASAQGMFLMMTNGFGCILGGIVSGKVVEMYTQNGITDWQTVWLIFAGYSVVLAFAFMAMFKYKHVRVPTGTQTVSH [P0AFF4]”: the “total protein half-life in vivo” value was over 8 h under setting [3]; 1.79 h under setting [6]; 6.63 h under setting [7]; 10.8 ± 2.5 h under setting [8]; 4.5 h under setting [10].
